Laboratory results reported in PMC1310897.

Experiments:
Assay in all cases: fluorescence polarization
RecQ WT = RecQ WT (Escherichia coli, UniProt P15043 1-609)
RecQ F158L = RecQ F158L (Escherichia coli, UniProt P15043 1-609, F158L)
RecQ R159L = RecQ R159L (Escherichia coli, UniProt P15043 1-609, R159L)
RecQ W154L = RecQ W154L (Escherichia coli, UniProt P15043 1-609, W154L)

Measured: binding result

GCGTGGGTAATTGTGCTTCAATGGACTGAC (ssDNA) [oligo 1 ssDNA (30 nt)]
binds: RecQ WT | RecQ F158L | RecQ R159L | RecQ W154L
